For the series, the system named is E. coli MG1655. Nature of the series: Coexpression of decarbonylase and aldehyde-generating enzyme in E. coli, GC-MS of hydrocarbons. It counts as cell-based. The conditions noted are these: for Production of Alkanes and Alkenes: alkane/alkene biosynthetic polypeptide coexpressed in E. coli with the aldehyde biosynthetic polypeptide of the same table row; for fatty aldehyde decarbonylase activity in E. coli: cotransformed with S. elongatus PCC7942_1594 into E. coli MG1655, M9 minimal media, 37° C. The source says:
Seven cyanobacteria, whose complete genome sequences are publicly available, were selected for verification and/or detection of alkane biosynthesis: Synechococcus elongatus PCC7942, Synechococcus elongatus PCC6301, Anabaena variabilis ATCC29413, Synechocystis sp. PCC6803, Nostoc punctiforme PCC73102, Gloeobacter violaceus ATCC 29082, and Prochlorococcus marinus CCMP1986. Only the first three cyanobacterial strains from this list had previously been reported to contain alkanes (Han et al., J. Am. Chem. Soc. 91:5156-5159 (1969); Fehler et al., Biochem. 9:418-422 (1970)). The strains were grown photoautotrophically in shake flasks in 100 mL of the appropriate media (listed in Table 8) for 3-7 days at 30° C. at a light intensity of approximately 3,500 lux. Cells were extracted for alkane detection as follows: cells from 1 mL culture volume were centrifuged for 1 min at 13,000 rpm, the cell pellets were resuspended in methanol, vortexed for 1 min and then sonicated for 30 min. After centrifugation for 3 min at 13,000 rpm, the supernatants were transferred to fresh vials and analyzed by GC-MS. The samples were analyzed on either 30 m DP-5 capillary column (0.25 mm internal diameter) or a 30 m high temperature DP-5 capillary column (0.25 mm internal diameter) using the following method.
After a 1 μL splitless injection (inlet temperature held at 300° C.) onto the GC/MS column, the oven was held at 100° C. for 3 mins. The temperature was ramped up to 320° C. at a rate of 20° C./min. The oven was held at 320° C. for an additional 5 min. The flow rate of the carrier gas helium was 1.3 mL/min. The MS quadrapole scanned from 50 to 550 m/z. Retention times and fragmentation patterns of product peaks were compared with authentic references to confirm peak identity.
The genomic DNA encoding Synechococcus elongatus PCC7942 orf1594 (YP_400611; putative aldehyde-generating enzyme) (SEQ ID NO:65) was amplified and cloned into the NcoI and EcoRI sites of vector OP-80 (pCL1920 derivative) under the control of the Ptrc promoter. The resulting construct (“OP80-PCC7942_1594”) was transformed into E. coli MG1655 and the cells were grown at 37° C. in M9 minimal media with 1% (w/v) glucose as carbon source and supplemented with 100 μg/mL spectinomycin. When the culture reached OD600 of 0.8-1.0, it was induced with 1 mM IPTG and cells were grown for an additional 18-20 h at 37° C. Cells from 0.5 mL of culture were extracted with 0.5 mL of ethyl acetate. After sonication for 60 min, the sample was centrifuged at 15,000 rpm for 5 min. The solvent layer was analyzed by GC-MS as described in Example 1.
The genomic DNA encoding Synechococcus elongatus PCC7942 orf1593 (YP_400610; putative decarbonylase) (SEQ ID NO:1) was amplified and cloned into the NdeI and XhoI sites of vector OP-183 (pACYC derivative) under the control of the Ptrc promoter. The resulting construct was cotransformed with OP80-PCC7942_1594 into E. coli MG1655 and the cells were grown at 37° C. in M9 minimal media supplemented with 100 μg/mL spectinomycin and 100 μg/mL carbenicillin. The cells were cultured and extracted as in Example 3 and analyzed by GC-MS as described in Example 1. […]

Results on nine molecules are retold here after patent US9481899B2, “Methods and compositions for producing hydrocarbons” (priority 2008, dated 2016).

For “SEQ ID NO: 1: Synechococcus elongatus PCC7942 orf1593, putative decarbonylase”, the “Production of Alkanes and Alkenes” value is listed as “yes”; the “fatty aldehyde decarbonylase activity in E. coli” value is “active fatty aldehyde decarbonylase”.

B1: SEQ ID NO: 31: Cyanothece sp. PCC7425 Cyan7425_2986, putative decarbonylase (protein, listed as Cyanothece sp.)
chain: MSDCATNPALDYYSETYRNAYRRVNGIVIEGEKQAYDNFIRLAELLPEYQAELTRLAKMEARHQKSFVACGQNLKVSPDLDFAAQFFAELHQIFASAANAGQVATCLVVQALIIECFAIAAYNTYLPVADEFARKVTASVVQDEYSHLNFGEVWLQNAFEQCKDEIITANRLALPLIWKMLNQVTGELRILGMDKASLVEDFSTRYGEALGQIGFKLSEILSLSVQGLQAVTP
Regarding B1, the “Production of Alkanes and Alkenes” value is “yes”; the “fatty aldehyde decarbonylase activity in E. coli” value is given as “active fatty aldehyde decarbonylase”.

B2: SEQ ID NO: 29: Cyanothece sp. PCC7425 Cyan7425_0398, putative decarbonylase (protein, listed as Cyanothece sp.)
chain: MPQVQSPSAIDFYSETYQDAYSRIDAIVIEGEQEAHDNYLKLTELLPDCQEDLVRLAKMEARHKKGFEACGRNLKVTPDMEFAQQFFADLHNNFQKAAAANKIATCLVIQALIIECFAIAAYNIYIPVADDFARKITENVVKDEYTHLNFGEEWLKANFDSQREEVEAANRENLPIVWRMLNQVETDAHVLGMEKEALVESFMIQYGEALENIGFSTREIMRMSVYGLSAA
B2: the “Production of Alkanes and Alkenes” value is recorded as “yes”; the “fatty aldehyde decarbonylase activity in E. coli” value is “active fatty aldehyde decarbonylase”.

B3: SEQ ID NO: 11: Thermosynechococcus elongatus BP-1 tll1313, putative decarbonylase (protein, listed as Thermosynechococcus elongatus)
chain: MTTATATPVLDYHSDRYKDAYSRINAIVIEGEQEAHDNYIDLAKLLPQHQEELTRLAKMEARHKKGFEACGRNLSVTPDMEFAKAFFEKLRANFQRALAEGKTATCLLIQALIIESFAIAAYNIYIPMADPFARKITESVVKDEYSHLNFGEIWLKEHFESVKGELEEANRANLPLVWKMLNQVEADAKVLGMEKDALVEDFMIQYSGALENIGFTTREIMKMSVYGLTGA
Take B3: the “Production of Alkanes and Alkenes” value is “yes”; the “fatty aldehyde decarbonylase activity in E. coli” value is “active fatty aldehyde decarbonylase”.

B4: SEQ ID NO: 13: Synechococcus sp. JA-3-3Ab CYA_0415, putative decarbonylase (protein, listed as Synechococcus sp.)
chain: MAPANVLPNTPPSPTDGGGTALDYSSPRYRQAYSRINGIVIEGEQEAHDNYLKLAEMLPEAAEELRKLAKMELRHMKGFQACGKNLQVEPDVEFARAFFAPLRDNFQSAAAAGDLVSCFVIQSLIIECFAIAAYNIYIPVADDFARKITEGVVKDEYLHLNFGERWLGEHFAEVKAQIEAANAQNLPLVRQMLQQVEADVEAIYMDREAIVEDFMIAYGEALASIGFNTREVMRLSAQGLRAA
Consider B4, for which the “Production of Alkanes and Alkenes” value was “yes”.

B5: SEQ ID NO: 3: Synechocystis sp. PCC6803 sll0208, putative decarbonylase (protein, listed as Synechocystis sp.)
chain: MPELAVRTEFDYSSEIYKDAYSRINAIVIEGEQEAYSNYLQMAELLPEDKEELTRLAKMENRHKKGFQACGNNLQVNPDMPYAQEFFAGLHGNFQHAFSEGKVVTCLLIQALIIEAFAIAAYNIYIPVADDFARKITEGVVKDEYTHLNYGEEWLKANFATAKEELEQANKENLPLVWKMLNQVQGDAKVLGMEKEALVEDFMISYGEALSNIGFSTREIMRMSSYGLAGV
As for B5, the “Production of Alkanes and Alkenes” value was “yes”.

B6: SEQ ID NO: 49: Prochlorococcus marinus MIT9313 PMT1231, putative decarbonylase, codon optimized for E. coli (protein, listed as Prochlorococcus marinus)
chain: MPTLEMPVAAVLDSTVGSSEALPDFTSDRYKDAYSRINAIVIEGEQEAHDNYIAIGTLLPDHVEELKRLAKMEMRHKKGFTACGKNLGVEADMDFAREFFAPLRDNFQTALGQGKTPTCLLIQALLIEAFAISAYHTYIPVSDPFARKITEGVVKDEYTHLNYGEAWLKANLESCREELLEANRENLPLIRRMLDQVAGDAAVLQMDKEDLIEDFLIAYQESLTEIGFNTREITRMAAAALVS
As to B6, the “Production of Alkanes and Alkenes” value is “yes”; the “fatty aldehyde decarbonylase activity in E. coli” value is “active fatty aldehyde decarbonylase”.

B7: SEQ ID NO: 51: Prochlorococcus mariunus NATL2A PMN2A_1863, putative decarbonylase, codon optimized for E. coli (protein, listed as Prochlorococcus marinus)
chain: MQAFASNNLTVEKEELSSNSLPDFTSESYKDAYSRINAVVIEGEQEAYSNFLDLAKLIPEHADELVRLGKMEKKHMNGFCACGRNLAVKPDMPFAKTFFSKLHNNFLEAFKVGDTTTCLLIQCILIESFAISAYHVYIRVADPFAKRITEGVVQDEYLHLNYGQEWLKANLETVKKDLMRANKENLPLIKSMLDEVSNDAEVLHMDKEELMEEFMIAYQDSLLEIGLDNREIARMALAAVI
B7: the “Production of Alkanes and Alkenes” value was “yes”; the “fatty aldehyde decarbonylase activity in E. coli” value is “active fatty aldehyde decarbonylase”.

B8: SEQ ID NO: 27: Cyanothece sp. ATCC51142 cce_0778, putative decarbonylase (protein, listed as Cyanothece sp.)
chain: MQELALRSELDFNSETYKDAYSRINAIVIEGEQEAYQNYLDMAQLLPEDEAELIRLSKMENRHKKGFQACGKNLNVTPDMDYAQQFFAELHGNFQKAKAEGKIVTCLLIQSLIIEAFAIAAYNIYIPVADPFARKITEGVVKDEYTHLNFGEVWLKEHFEASKAELEDANKENLPLVWQMLNQVEKDAEVLGMEKEALVEDFMISYGEALSNIGFSTREIMKMSAYGLRAA
Take B8: the “Production of Alkanes and Alkenes” value is “yes”; the “fatty aldehyde decarbonylase activity in E. coli” value is “active fatty aldehyde decarbonylase”.
